In IntAct's records for PubMed 31911079:

B1: Lysyl oxidase homolog 2 (Homo sapiens), Q9Y4K0 (parent)
chain: MERPLCSHLCSCLAMLALLSPLSLAQYDSWPHYPEYFQQPAPEYHQPQAPANVAKIQLRLAGQKRKHSEGRVEVYYDGQWGTVCDDDFSIHAAHVVCRELGYVEAKSWTASSSYGKGEGPIWLDNLHCTGNEATLAACTSNGWGVTDCKHTEDVGVVCSDKRIPGFKFDNSLINQIENLNIQVEDIRIRAILSTYRKRTPVMEGYVEVKEGKTWKQICDKHWTAKNSRVVCGMFGFPGERTYNTKVYKMFASRRKQRYWPFSMDCTGTEAHISSCKLGPQVSLDPMKNVTCENGLPAVVSCVPGQVFSPDGPSRFRKAYKPEQPLVRLRGGAYIGEGRVEVLKNGEWGTVCDDKWDLVSASVVCRELGFGSAKEAVTGSRLGQGIGPIHLNEIQCTGNEKSIIDCKFNAESQGCNHEEDAGVRCNTPAMGLQKKLRLNGGRNPYEGRVEVLVERNGSLVWGMVCGQNWGIVEAMVVCRQLGLGFASNAFQETWYWHGDVNSNKVVMSGVKCSGTELSLAHCRHDGEDVACPQGGVQYGAGVACSETAPDLVLNAEMVQQTTYLEDRPMFMLQCAMEENCLSASAAQTDPTTGYRRLLRFSSQIHNNGQSDFRPKNGRHAWIWHDCHRHYHSMEVFTHYDLLNLNGTKVAEGHKASFCLEDTECEGDIQKNYECANFGDQGITMGCWDMYRHDIDCQWVDITDVPPGDYLFQVVINPNFEVAESDYSNNIMKCRSRYDGHRIWMYNCHIGGSFSEETEKKFEHFSGLLNNQLSPQ

Variants of: B1
Settings: with vime_human VIM

effect of a mutation on the interaction | Variant
with no effect | H626Q;H628Q;Y689F

Variants of: B1
Settings: with can2_human CAPN2, P17655
Chain of can2_human CAPN2, P17655 (P17655 whole entry): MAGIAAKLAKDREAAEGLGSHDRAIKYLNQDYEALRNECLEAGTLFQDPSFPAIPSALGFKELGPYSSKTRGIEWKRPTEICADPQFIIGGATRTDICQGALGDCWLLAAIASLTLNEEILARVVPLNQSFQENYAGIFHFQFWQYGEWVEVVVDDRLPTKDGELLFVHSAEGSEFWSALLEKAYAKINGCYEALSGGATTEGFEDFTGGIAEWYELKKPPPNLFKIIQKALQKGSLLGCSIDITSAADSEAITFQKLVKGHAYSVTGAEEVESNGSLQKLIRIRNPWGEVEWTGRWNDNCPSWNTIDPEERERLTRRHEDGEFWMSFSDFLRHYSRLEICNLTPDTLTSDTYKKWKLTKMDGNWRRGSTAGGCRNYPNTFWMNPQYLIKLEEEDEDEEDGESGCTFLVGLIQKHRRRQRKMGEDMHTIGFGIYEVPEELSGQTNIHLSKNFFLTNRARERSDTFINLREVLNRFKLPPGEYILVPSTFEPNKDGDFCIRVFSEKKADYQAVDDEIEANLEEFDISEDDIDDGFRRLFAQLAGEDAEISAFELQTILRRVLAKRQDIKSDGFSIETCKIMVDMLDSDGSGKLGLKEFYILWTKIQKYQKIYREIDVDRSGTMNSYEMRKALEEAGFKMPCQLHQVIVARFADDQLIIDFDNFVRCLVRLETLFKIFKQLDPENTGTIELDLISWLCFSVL

effect of a mutation on the interaction | Variant
with no effect | H626Q;H628Q;Y689F
with no effect | N288Q;N455Q;N644Q
